Measured values reported in publication PMC1783847.

Molecular target: Bluetongue virus serotype 10 outer capsid protein VP2, unmodified full-length (Bluetongue virus serotype 10 (BTV-10))
Assay: SDS-PAGE of non-denatured samples with western blot

**Q.** With “Bluetongue virus serotype 10 outer capsid protein VP2, unmodified full-length (natural protein)” as the substance, how does the stoichiometry N read?
**A.** 3
